Source: paper PMC4449531, “Identification and characterization of a novel group of legume-specific, Golgi apparatus-localized WRKY and Exo70 proteins from soybean”

T1: GmWRP1 (Glycine max, UniProt I1MBG9 1-332)
T1 sequence: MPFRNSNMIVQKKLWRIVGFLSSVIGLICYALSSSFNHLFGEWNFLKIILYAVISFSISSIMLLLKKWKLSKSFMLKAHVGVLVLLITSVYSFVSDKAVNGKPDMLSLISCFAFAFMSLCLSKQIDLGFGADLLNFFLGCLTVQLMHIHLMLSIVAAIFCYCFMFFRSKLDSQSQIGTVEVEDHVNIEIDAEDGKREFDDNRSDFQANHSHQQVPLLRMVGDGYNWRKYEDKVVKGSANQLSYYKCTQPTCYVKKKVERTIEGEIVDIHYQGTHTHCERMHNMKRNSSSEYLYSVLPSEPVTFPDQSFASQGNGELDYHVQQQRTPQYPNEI


Key:
GmWRP1 = biological target: T1, GmWRP1; assay: EMSA; not stated; EMSA as in Zheng et al., 2006; conditions: protein: recombinant; tags: His (pET32a); label: labelled by Klenow fill-in
AtWRKY33 = AtWRKY33 (Arabidopsis, UniProt Q8S8P5 1-519); assay: EMSA; not stated; EMSA as in Zheng et al., 2006; conditions: protein: recombinant; tags: His (pET32a); label: labelled by Klenow fill-in
AtWRKY33, sequence (Q8S8P5 whole entry): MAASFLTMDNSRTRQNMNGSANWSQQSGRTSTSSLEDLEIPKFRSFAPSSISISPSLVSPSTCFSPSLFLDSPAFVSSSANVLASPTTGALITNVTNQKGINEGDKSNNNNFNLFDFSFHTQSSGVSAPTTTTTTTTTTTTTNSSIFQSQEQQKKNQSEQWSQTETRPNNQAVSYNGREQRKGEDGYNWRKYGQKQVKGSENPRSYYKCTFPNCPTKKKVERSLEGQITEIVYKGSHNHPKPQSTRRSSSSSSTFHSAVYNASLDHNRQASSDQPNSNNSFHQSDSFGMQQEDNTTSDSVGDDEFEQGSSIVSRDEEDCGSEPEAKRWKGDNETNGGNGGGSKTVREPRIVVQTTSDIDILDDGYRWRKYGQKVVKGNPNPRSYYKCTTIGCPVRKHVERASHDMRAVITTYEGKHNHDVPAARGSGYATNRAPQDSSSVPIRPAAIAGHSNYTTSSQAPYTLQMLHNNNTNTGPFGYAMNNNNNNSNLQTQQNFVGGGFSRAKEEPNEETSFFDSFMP

Binder | binding result (GmWRP1) | binding result (AtWRKY33)
Pchn0 (dsDNA) DNA 1: GGAACTTGACCTTGACCTTAGGGCTGCAGGAATTCG DNA 2: CGAATTCCTGCAGCCCTAAGGTCAAGGTCAAGTTCC | no binding | binds
mPchn0 (dsDNA) DNA 1: GGAACTTGAACTTGAACTTAGGGCTGCAGGAATTCG DNA 2: CGAATTCCTGCAGCCCTAAGTTCAAGTTCAAGTTCC | no binding | no binding
